Results reported in the DeepSol protein solubility set.

assay: soluble on expression in E. coli; label from the status in PepcDB or PDB records

Soluble on expression in E. coli, not soluble:
HPSIFAATDGHSSRLDVTMGMSYNNRFFASLMYRPTQAVGVSLGMQLGKFYAGYAFEWPTSVLAKASWGSHELLVSYSFPLSNTKNRDAKYKSIRFL
MGKGAMNRRDFLKVGGMSTLALTLGSTGLFSLEGQAKNSSNPTSGFGGFGPLVKDPNGILDLPKGFKYKILSRTGDRMTNGDLVPSMHDGMAAFQGPRNTTILVRNHENGTNADYPVNGKNPWSKGAAGGTTALVVGPNREVIREYVTNSGNIRNCAGGPSTWGTWLTCEETRDMGHGFVFEVNPHEPENEMSKTPIRDMGYFSHEACNVDPSTGIWYLTEDNSPSFFYRFTPHDRSQTLGSLQKGGILEAAAIDELPHNQASNFTSGQKIGIVWKKVNPERAKEDARDLGCIRFSRLEGSWFAGGAFWFDDTNAGEKNLGRIYRYFPATNTLELFYESSDHNDLEMPDNITITPWGDLWIAEDGNIGRDRMIGLTPEGNVYTFAENRLNNSEFAGPAFSPDGKTFYLNMQTPGITFAIWGPFARRNAARQVAMSHAAPPPGYGPQVSDKLADYAERHGMSPLAAAALERHGFIVLEHHHHHH
MGSDKIHHHHHHMERYNTMSGKKTESSDNIVLYPGLVKRLIEKGMEALKEKDAKKALTMFEQAEQYDAEPSQILFGKALCYVELGKLDDAVLLTDQMLRNDIGNYYDILQIHLSLLVQLGRYDEVVEMLDVVLAEDRLPAKHAESFYQLLHFSRQMVEDSPTYIKEPLSEELDLKETYDDINERDSLEQWHFLQQMRKHNNPADIRTLLSFVESESNDPALRSYALHMLTMHKVEKRVRIRKFDQEAEVIPVELNADEQQRFGNAVVEQLEARLAVENPSLFKMAEQLWWQFLYALYPFTPKPEQKDLWAGAVHVAVHESNGLPFDEEEIAGMYNCRVQQMLEKGEEIHFVETETFQGISGHSFR
MPRKPKRPCSFPGCPELTDGRYCDMHQRQMDAYYNKYERDPQTRKRYDRRWKRIRDRYISEHPLCEECQKYGRLTPAEEVHHIIPLSKGGTNADSNLMSLCKQCHSSITAREGERWARR
MMTYDRNRNAITTGSRVMISGTGHTGIIKAIESEGLDAGQIRRGKTVIVEGCEGKFAPVELIRLGMN
MGSDKIHHHHHHMARVPRFALVERDSSNHCTWRAHDLEFVFEEPGARDKFLELVGRYKDRYGVEIRSYCLMGTHPHVTCTCRQEQVQFSRFWQVVNGQFARWYNKVRNRRGQVVMERMRTPRIQEGGAHQLTVMRYGDLNPVRAGLVKSPKDWKWSSYRHYAFGEPNPLITDAPEYLALGKTAQERRKAYQALFALPLSESLRTRRVELVSFPFVGDATWVMRRLEAAGLSPPD
MKDGEAATGQAASRPKRADARRNEKNLLDAAAAVFVRSGVEAPVRDIAAEAGVGTATIYRHFPTRADLIIGVYRHQVEACAEAGPALLASSPTPYAALAGWIDLFVDFLVTKHGLAAVLQSDSAGFETLHAYFLDRLVPVCTDLLAAATDSGEIDTDVPPLALMRGVGNLCIGAETPNPSYDARQLVRILIAGLRAAD
MFNKVSVIGLGYIGLPTAAVLASRGLDVVGVDVNAHAVDTINKGEIHIVEPDLDIVVRSAVMTGKLKATLTAEPADAFLVAVPTPFKGDNHEPDLSYIEAAAKTIAPVLAKGNLVVLESTSPVGTTEKLAQWLAEARPDLTFPQQKGIAADVKIAYCPERVLPGYVLQELVSNDRVIGGVSKACSEKAVALYKTFVKGECIVTNARTAEMAKLTENSFRDVNIAFANELSLVCNKLKINVWELIRLANRHPRVSILNPGPGVGGHCIAVDPWFIVNSCPDEAQLIRTAREVNDGKPHWVVDQVKQAADQFKKPIIACLGLAFKADIDDLRESPALDITKHLAESKVGQLLAVEPNITELPSKLAKQGIELVSLERALELANIVVVLVDHKEFKAADKTEFAKKVVIDTRGVVA
MGSDKIHHHHHHMEFQLDKDWRLQPIKGATGQTYMGIKETEKVFIKRNTSPLLAALSKEGLAPKMIWTKRTANGDVLTAQEWLEGRLLHADEIGKRNDVIDVLYQLHHSNLLKDMLKKIGGEVCTPLTMLKEYKRQLPKELKRNSYLKEVITYLYNHLPEYPETSYVAVHGDVNHRNWLVSNNYLYLVDWDSVMVADPAVDLGMILSHYVPRSGWNQWLLSYGLIPNESTVQRIYWYGLFSFLQEIVRHHQEGERRAMTAEILQLKRMFSI
EAGAMDERTFGKSIEVYTRQICEELLTTAAGNTDAHYKTYRCPLCGNDSVRVFPKIVKCVTDGCGFKVFRELCGTLLSKEYIHALMTDGCTPLLCRLTGKSGKTFNARLKLDKDGGTSFVFDSKPRKPQT
MGSDKIHHHHHHMKKYYIYILTAVLPILWGACNNGDDIDTKHSIFSTEPMEHNGFDEWLLANYTYPYNVDFKYRMQDIESDHKYNLVPADYDKSVALAKIIKHVWMEAYTELAGPAFLRSYVPKTFHLIGSPAYDSSGTKVLGTAEGGKKITLYEVNSLDFENVDIEVLNEYYFKTMHHEFAHILHQKRNYDPSFDRITEGKYVGSDWYFYVAENGNSYLREDADAWPEGFVTAYAMSEAREDFVENIAMYVTHDQAYWDNMLKVAGTAGAAIINQKFTIVYNYMLETWGINLDDLREIVLRRQQEIPELDLSTIE
MGSDKIHHHHHHMKTIRIGSGAGYAGDRIEPAVELAQKGDIQYLVFECLAERTIAIGQKQKQQNPEKGYNELLADRMHAVLPLCLEKGIKIITDMGSANPVAAGQRVLEIAKELGADKLKIAIVTGDDVHSVLIAQDSKLDEIGLPISRCGKDILSANAYLGADALVEALRQGADVIIAGRVSDPSLFLSAMMYEFDWAADDWDRLGKGTCLGHLLECAGQITGGYYADPGVKDIPNLDRLGFPIAEITEDGSAVITKVEGSGGCVCVDTCKEQLLYEIHRPDSYITPDVIADFSHVTFTQDGENRVRVQGATGREKTGTLKVSVGYQDGFIGEGEISYAGPGAVARGRLALDIVKGRFALCQLDLQEVRYDLIGVDALHGAQRSQSSEPYEVRARVAARCTSRAQAVKVGNEVETLYTNGPAGGGGVNKSVKEILAMDSTLLSRACVTPAVDYLEIK
MGSDKIHHHHHHMGTKKNFVLDTNVILHDYNCLKNFQENDIYLPIVVLEELDKFKKGNEQINYNAREFVRELDLITDDSLFTHGAPLGEGLGKLFIVTGDSEAPKVHESFPARKPDHQILAVAEYLARKYPKMKNILVTKDVNLRMKARSIGILCEDYITDKVVNVDIFEKSNEVFENIEPDLIDRIYSSREGLDISEFDFKDIIRPNECFILKSDRSSVLARYNPFTHTVCRVNKTKNYGIEPRNAEQSFAFEILNDPDIKLVALTGKAGTGKTLLALAAALGKLTEYKQILLARPIVALSNKDLGFLPGDATEKVAPYMQPLFDNLNVIKRQFASNSTEVKRLEDMQKSEQLVIEALAFIRGRSLSETYCIIDEAQNLTPHEIKTIITRAGEGTKMVFTGDIQQIDQPYLDSQSNGLVYMIDRMKDQNLFAHVNLVKGERSELSELASNLM

Soluble on expression in E. coli, soluble:
MSNQLSPKPPVNPIVMGKIGSAYGIRGWLRVFSSTEDADSIFDYQPWFIQSKSGWQLVEIEGWKYHNQDLIIKVKGADDRDAANLLTNCEIVVDSSQLPDLGVGDYYWKDLIGCQVVTVTGYELGKIIDMMETGSNDVMVIKANLKDAFGVKERLVPFLTEQVVKRVDLSAQTIEVDWDPGFLEHHHHHH
MNFRTGQPSDAAALAAISIEVWLGTYMRKGVSAFFAEYALNEFTSTKMASLLKDPNEHVIVSENEGGIDAFIRLGQGRAAPVSGCSTLEIATLYVQPRHHRRGLGRALLEQGLAYARQASAPSVWLTTNSENAPAIAFYLEQGFEKVGTTHFNIGDQAYLNDVFRRIVSM
MAGNAPLQQVQKKWAECQYSTPDGDEKEQCFHRAIAKTSIYLDREPGNPELTVWLAINKASLAGAQGGFGALSLAKEAKSLLEGVIATSPQTLDGSAYTSLGSLYYKVPGWPIGFGDDDKAEEMLKKALEINPKGIDPNYFYGDFLAEEGRDKEAKVYLTRAMQASPRPDRPLADKGRKLEIEATLGRLKLEHHHHHH
GEADSGDGDSSEYQDGKEFGIGDLVWGKIKGFSWWPAMVVSWKATSKRQAMSGMRWVQWFGDGKFSEVSADKLVALGLFSQHFNLATFNKLVSYRKAMYHALEKARVRAGKTFPSSPGDSLEDQLKPMLEWAHGGFKPTGIEGLKPNNTQP
TPGDRTGTSKCRKAGCVYFGTPENKGFCTLCFIEY
GPGGGSEAYFRVESGALGPEENFLSLDDILMSHEKLPVRTETAMPRLGAFFLERSAGAETDNAVPQGSKLELPLWLAKGLFDNKRRILSVELPKIYQEGWRTVFSADPNVVDLHKMGPHFYGFGSQLLHFDSPENADISQSLLQTFIGRFRRIMDSSQNAYNEDTSALVARLDEMERGLFQTGQKGLNDFQCWEKGQASQITASNLVQNYKKRKFTDMED
MSLISIVVLYYSRHGSTQALARQIARGVESVEGCQALLRTVAELDGTASNSDPYLSLDELKQCDGLALGSPVWFGNMAAPLKHFWDQTTPLWLSGALIDKPACVFTSSSTLHGGQETTQQSMMLPLLHHGMLILGIPYSEPALHTTQSGGTPYGASHVHQQKTLSSEEAELARQLGKRLAHVAKQLKGEGGSHHHHHH
MQLDPGRGYDLIGDVHGCAHTLDRLLDLLGYRLQGGVWRHPRRQALFLGDIVDRGPRIREALHRVHAMVDAGEALCIMGNHEFNALGWSTPAAPGSGRQYVREHTPRHARLIKETLEQFEGHDADWRDFLGWFQQLPLFLDAGRFRMVHACWDGELIATLRRQFPDGRISEAFLQESAEPGSFADLACNRLLRGTDMRLPHGATLTSSDGYTRAFFRTKFWVEDEAPRTYGDIVFQPDALPEAIAREPLSEEQKSSLLTYGADEPLLFVGHYWRRGTPAPIRPNLACLDYSAVMYGKLAAYRLDEETRLDRHKFVWVEVKRPEADE
AQEVLRRTPLYDFHLAHGGKMVAFAGWSLPVQYRDSHTDSHLHTRQHCSLFDVSHMLQTKILGSDRVKLMESLVVGDIAELRPNQGTLSLFTNEAGGILDDLIVTNTSEGHLYVVSNAGCWEKDLALMQDKVRELQNQGRDVGLEVLDNALLALQGPTAAQVLQAGVADDLRKLPFMTSAVMEVFGVSGCRVTRCGYTGEDGVEISVPVAGAVHLATAILKNPEVKLAGLAARDSLRLEAGLCLYGNDIDEHTTPVEGSLSWTLGKRRRAAMDFPGAKVIVPQLKGRVQRRRVGLMCEGAPMRAHSPILNMEGTKIGTVTSGCPSPSLKKNVAMGYVPCEYSRPGTMLLVEVRRKQQMAVVSKMPFVPTNYYTLK
MSLREVALKILIVEDDTDAREWLSTIISNHFPEVWSAGDGEEGERLFGLHAPDVIITDIRMPKLGGLEMLDRIKAGGAKPYVIVISAFSEMKYFIKAIELGVHLFLPKPIEPGRLMETLEDFRHIKLAKLKKEEAEQERIRSLLFESKKELIRLIAHHWRQPLNVISITAENIKLNLDERGIEGHEDTHHLADKIVTESLRLSRVISRFSDTFFAKEEVGRHFGLHTVLKDAFEIAEPLAQEARCLLEIEGNDEVIFGLKGMLVQILLEVFKAIMALCDQVNRGELLVRVVCESFEGEVKIWMADVACAGRCWSEVMFEPFAGGFEEKRRDMELFVAQHLLRRYFDGMIKIVDRGEIRGLEITLSRNPKKFNSPLAEGHHHHHH
